In patent US20200255542A1 (Merck Sharp & Dohme, published 2020):

Tests used:
[1] = target: T1, human coagulation Factor XI (FXI) zymogen (human, UniProt P03951 19-625); test: cell-based or functional assay
human FXIa [2] = target: T2, human FXIa (human, UniProt P03951 19-625); test: cell-based or functional assay
[3] = target: T1, human coagulation Factor XI (FXI) …; test: cell-based or functional assay; remark: listed apart in the source
[4] = target: T3, Human plasma preKallikrein (human, UniProt P03952 20-638); test: SPR (Biacore T200), mAb captured on anti-human IgG (Fc) chip, single analyte concentration;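 further: Anti-FXI mAbs captured about 500 RU, anti-RSV mAb as reference, coagulation cascade proteins injected at 500 nM (FXI 5 nM), 25 °C, HBS-EP+ pH 7.4, 1:1 fit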
T3 construct: also called HPK 1302
Method: (§1) Anti-FXI mAbs were captured on a CM5 sensor chip immobilized with anti-human IgG (Fc) capture kit (GE Healthcare) at approximately 500 RU to minimize potential background from co-purifying Igs in plasma derived proteins. Negative control antibody, anti-respiratory syncytial virus (RSV) monoclonal antibody (mAb), was used as a reference and to help reduce background binding of plasma-derived proteins. Binding kinetics was measured using an analyte concentration of FXI at 5 nM; all other coagulation cascade proteins were used at an analyte concentration of 500 nM. Single concentration injections (n=2) were run at 30 μL/min, 25° C., HBS-EP+, pH 7.4.
(§2) Biacore T200 evaluation software was used to fit data to a 1:1 binding model to determine the association rate constant, kₐ (M⁻¹ s⁻¹, where “M” equals molar and “s” equals seconds) and the dissociation rate constant, kd (s⁻¹). These rate constants were used to calculate the equilibrium dissociation constant, KD (M).

Human plasma Kallikrein = target: T4, Human plasma Kallikrein (human, UniProt P03952 20-638); test: as above
T4 construct: also called HPKa 1303
Method: as §1, §2

[5] = target: Human Factor II (α-thrombin) (human, UniProt P00734 328-622); test: as above
Method: as §1, §2

Human Factor VII = target: T5, Human Factor VII (human, UniProt P08709 61-466); test: as above
T5 construct: also called FVII; HCVII-0030
T5 sequence (looked up): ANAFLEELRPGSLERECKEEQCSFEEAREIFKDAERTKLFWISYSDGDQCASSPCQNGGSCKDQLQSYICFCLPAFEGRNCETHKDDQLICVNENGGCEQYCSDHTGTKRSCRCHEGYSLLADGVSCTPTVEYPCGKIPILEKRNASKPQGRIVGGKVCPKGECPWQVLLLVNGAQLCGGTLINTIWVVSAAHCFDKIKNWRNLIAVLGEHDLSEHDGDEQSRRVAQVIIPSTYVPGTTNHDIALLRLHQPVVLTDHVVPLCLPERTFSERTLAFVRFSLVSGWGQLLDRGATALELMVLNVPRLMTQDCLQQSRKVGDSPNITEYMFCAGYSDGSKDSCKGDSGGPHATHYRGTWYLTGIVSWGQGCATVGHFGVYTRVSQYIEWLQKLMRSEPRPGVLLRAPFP
Method: as §1, §2

[6] = target: T6, Human Factor VIIa Protease (human, UniProt P08709 61-466); test: as above
T6 construct: also called FVIIa; HCVIIA-0031
T6 sequence (looked up): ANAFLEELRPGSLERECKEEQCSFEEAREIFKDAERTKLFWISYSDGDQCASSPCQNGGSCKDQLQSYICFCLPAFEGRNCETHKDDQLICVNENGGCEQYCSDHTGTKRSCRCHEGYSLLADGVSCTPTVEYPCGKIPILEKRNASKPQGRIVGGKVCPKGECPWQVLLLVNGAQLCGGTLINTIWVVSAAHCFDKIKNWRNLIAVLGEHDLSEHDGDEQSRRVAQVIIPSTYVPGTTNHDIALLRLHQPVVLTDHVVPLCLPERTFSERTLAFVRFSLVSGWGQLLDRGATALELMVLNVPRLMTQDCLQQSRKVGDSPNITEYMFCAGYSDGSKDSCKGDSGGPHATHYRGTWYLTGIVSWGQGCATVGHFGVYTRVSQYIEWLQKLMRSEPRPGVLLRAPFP
Method: as §1, §2

Human Factor IX = target: T7, Human Factor IX (human, UniProt P00740 47-461); test: as above
T7 construct: also called FIX; FIX zymogen
Method: as §1, §2

[7] = target: T8, Human Factor IXa Protease (human, UniProt P00740 47-191; P00740 227-461); test: as above
T8 construct: also called FIXa; HFIXa 1080
Method: as §1, §2

Human Factor X = target: T9, Human Factor X (human, UniProt P00742 41-488); test: as above
T9 construct: also called FX; HFX1010
Method: as §1, §2

Human Factor Xa Protease = target: T10, Human Factor Xa Protease (human, UniProt P00742 41-179; P00742 235-488, limits assumed); test: as above
T10 construct: also called FXa; HFXa 1011
Method: as §1, §2

Human Factor XII = target: T11, Human Factor XII (human, UniProt P00748 20-615); test: as above
T11 construct: also called FXII; HFXII 1212
T11 sequence (looked up): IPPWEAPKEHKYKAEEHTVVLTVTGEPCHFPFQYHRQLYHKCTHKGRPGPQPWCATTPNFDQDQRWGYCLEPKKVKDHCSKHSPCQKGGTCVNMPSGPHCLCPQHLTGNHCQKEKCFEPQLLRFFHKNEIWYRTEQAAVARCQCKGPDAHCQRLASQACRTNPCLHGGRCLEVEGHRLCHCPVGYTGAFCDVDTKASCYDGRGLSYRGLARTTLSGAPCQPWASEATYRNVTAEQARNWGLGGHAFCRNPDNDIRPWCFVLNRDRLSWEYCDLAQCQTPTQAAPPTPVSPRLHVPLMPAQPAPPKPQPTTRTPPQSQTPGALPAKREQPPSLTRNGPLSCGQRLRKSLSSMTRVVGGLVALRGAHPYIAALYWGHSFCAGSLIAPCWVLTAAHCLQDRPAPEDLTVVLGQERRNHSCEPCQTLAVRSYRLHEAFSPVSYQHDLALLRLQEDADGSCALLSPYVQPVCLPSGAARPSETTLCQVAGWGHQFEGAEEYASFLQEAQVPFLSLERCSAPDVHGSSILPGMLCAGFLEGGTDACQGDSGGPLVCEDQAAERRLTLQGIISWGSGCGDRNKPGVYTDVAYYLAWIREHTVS
Method: as §1, §2

[8] = target: T12, Human Factor XIIa Protease (human, UniProt P00748 20-615, limits assumed); test: as above
T12 construct: also called FXIIa; Human Factor Xlla Protease
T12 sequence (looked up): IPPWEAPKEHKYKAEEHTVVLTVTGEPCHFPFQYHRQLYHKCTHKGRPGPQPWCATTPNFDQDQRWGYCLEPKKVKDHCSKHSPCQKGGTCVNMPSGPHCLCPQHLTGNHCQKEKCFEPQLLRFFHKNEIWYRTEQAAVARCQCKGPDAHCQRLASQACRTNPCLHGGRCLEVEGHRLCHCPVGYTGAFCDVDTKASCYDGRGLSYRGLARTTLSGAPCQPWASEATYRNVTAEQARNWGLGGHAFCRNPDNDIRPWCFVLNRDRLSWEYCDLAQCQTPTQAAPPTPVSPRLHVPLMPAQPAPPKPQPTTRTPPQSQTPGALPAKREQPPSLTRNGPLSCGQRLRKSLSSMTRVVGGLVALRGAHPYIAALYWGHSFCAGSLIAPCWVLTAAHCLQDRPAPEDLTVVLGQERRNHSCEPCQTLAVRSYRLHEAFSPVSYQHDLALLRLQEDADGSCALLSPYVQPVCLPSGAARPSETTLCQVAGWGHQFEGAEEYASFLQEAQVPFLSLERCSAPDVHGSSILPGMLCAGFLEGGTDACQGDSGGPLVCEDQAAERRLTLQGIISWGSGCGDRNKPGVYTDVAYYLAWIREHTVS
Method: as §1, §2

[9] = target: T13, Human Factor II (Prothrombin) (human, UniProt P00734 44-622); test: as above
T13 construct: also called FII; lot 41AHG
Method: as §1, §2

[10] = target: T14, Rhesus monkey plasma Kallikrein (rhesus monkey, UniProt A0A1D5Q7U7 20-638); test: as above
T14 construct: Recombinant, Merck Sharp & Dohme; also called NHP plasma kallikrein; lot 00AJF; not shown: C-terminal His tag

[11] = target: T1, human coagulation Factor XI (FXI) …; test: SPR (ProteOn XPR36), antibody captured by anti-human IgG Fc, FXI as analyte; mean ± SD, N=3
Method: (§3) After capture of anti-FXI antibodies, running buffer (1×HBS-N, 5 mM CaCl₂, 0.005% P20, pH 7.4) was injected across all horizontal flow channels (A1-A6) for 5 minutes and allowed to dissociate for 20 minutes at 25 μL/min to remove any non-specifically bound anti-FXI antibodies from the chip surface.
(§4) After capture of anti-FXI antibodies, running buffer was injected across all horizontal flow channels (A1-A6) for 5 minutes and allowed to dissociate for 20 minutes at 25 L/minutes to remove non-specifically bound anti-FXI antibodies from the chip surface.

[12] = target: T15, cynomolgus monkey FXI zymogen (cynomolgus monkey, UniProt A0A2K5VVW4 19-624); test: as above
T15 construct: also called cyno FXI; NHP FXI
Method: as §3, §4

[13] = target: T16, rhesus monkey FXI zymogen (rhesus monkey, UniProt F6PJ95 19-624); test: as above
T16 construct: also called Rhesus FXI; NHP FXI
Method: as §3, §4

human FXIa [14] = target: T2, human FXIa; test: SPR (ProteOn XPR36), antibody captured by anti-human IgG Fc, FXIa as analyte; mean ± SD, N=3
Method: as §3, §4

cynomolgus monkey FXIa = target: T17, cynomolgus monkey FXIa (cynomolgus monkey, UniProt A0A2K5VVW4 19-624); test: as above
T17 construct: also called NHP FXIa
Method: as §3, §4

rhesus monkey FXIa = target: T18, rhesus monkey FXIa (rhesus monkey, UniProt F6PJ95 19-624); test: as above
T18 construct: also called NHP FXIa
Method: as §3, §4

[15] = target: T19, Cynomolgus monkey plasma Kallikrein (cynomolgus monkey, UniProt A0A2K5VTJ9 20-638); test: SPR (Biacore T200), mAb captured on anti-human IgG (Fc) chip, single analyte concentration;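 further: Anti-FXI mAbs captured about 500 RU, anti-RSV mAb as reference, coagulation cascade proteins injected at 500 nM (FXI 5 nM), 25 °C, HBS-EP+ pH 7.4, 1:1 fit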
T19 construct: Recombinant, Merck Sharp & Dohme; also called NHP plasma kallikrein; lot 65AJE; not shown: C-terminal His tag
T19 sequence (A0A2K5VTJ9 entry or part of it): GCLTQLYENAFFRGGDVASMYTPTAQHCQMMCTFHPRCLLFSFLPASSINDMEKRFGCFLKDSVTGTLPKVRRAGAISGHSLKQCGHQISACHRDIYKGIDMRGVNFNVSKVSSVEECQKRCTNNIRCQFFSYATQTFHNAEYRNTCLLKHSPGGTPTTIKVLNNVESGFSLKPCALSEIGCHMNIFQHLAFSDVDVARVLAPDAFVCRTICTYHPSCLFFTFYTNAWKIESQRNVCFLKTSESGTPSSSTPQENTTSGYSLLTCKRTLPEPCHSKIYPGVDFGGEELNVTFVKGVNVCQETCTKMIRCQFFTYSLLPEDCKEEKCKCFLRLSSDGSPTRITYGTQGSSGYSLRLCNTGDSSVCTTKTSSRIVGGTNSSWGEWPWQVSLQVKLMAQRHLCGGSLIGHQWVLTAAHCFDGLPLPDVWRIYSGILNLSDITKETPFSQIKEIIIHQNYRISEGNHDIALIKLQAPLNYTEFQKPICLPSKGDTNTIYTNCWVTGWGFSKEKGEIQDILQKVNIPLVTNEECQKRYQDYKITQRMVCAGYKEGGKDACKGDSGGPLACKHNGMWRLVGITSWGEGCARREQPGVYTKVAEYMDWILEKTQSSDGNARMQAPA

T18 sequence (F6PJ95 entry or part of it): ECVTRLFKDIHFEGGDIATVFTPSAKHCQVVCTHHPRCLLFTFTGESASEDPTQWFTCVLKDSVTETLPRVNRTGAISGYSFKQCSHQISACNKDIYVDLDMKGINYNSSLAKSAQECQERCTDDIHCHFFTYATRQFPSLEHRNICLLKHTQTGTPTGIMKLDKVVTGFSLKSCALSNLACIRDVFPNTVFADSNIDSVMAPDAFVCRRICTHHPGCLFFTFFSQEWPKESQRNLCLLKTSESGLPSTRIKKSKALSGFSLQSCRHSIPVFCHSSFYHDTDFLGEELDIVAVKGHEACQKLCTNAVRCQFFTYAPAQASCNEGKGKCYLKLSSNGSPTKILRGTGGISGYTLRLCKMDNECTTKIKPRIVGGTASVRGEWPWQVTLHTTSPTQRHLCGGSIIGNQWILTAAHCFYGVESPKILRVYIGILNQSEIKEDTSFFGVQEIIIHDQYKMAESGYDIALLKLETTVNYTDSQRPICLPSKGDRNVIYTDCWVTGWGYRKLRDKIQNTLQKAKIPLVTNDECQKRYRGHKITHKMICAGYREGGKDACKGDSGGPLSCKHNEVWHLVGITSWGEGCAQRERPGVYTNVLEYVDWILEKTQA
T16 sequence (F6PJ95 entry or part of it): as above
T4 sequence (P03952 20-638 limits assumed): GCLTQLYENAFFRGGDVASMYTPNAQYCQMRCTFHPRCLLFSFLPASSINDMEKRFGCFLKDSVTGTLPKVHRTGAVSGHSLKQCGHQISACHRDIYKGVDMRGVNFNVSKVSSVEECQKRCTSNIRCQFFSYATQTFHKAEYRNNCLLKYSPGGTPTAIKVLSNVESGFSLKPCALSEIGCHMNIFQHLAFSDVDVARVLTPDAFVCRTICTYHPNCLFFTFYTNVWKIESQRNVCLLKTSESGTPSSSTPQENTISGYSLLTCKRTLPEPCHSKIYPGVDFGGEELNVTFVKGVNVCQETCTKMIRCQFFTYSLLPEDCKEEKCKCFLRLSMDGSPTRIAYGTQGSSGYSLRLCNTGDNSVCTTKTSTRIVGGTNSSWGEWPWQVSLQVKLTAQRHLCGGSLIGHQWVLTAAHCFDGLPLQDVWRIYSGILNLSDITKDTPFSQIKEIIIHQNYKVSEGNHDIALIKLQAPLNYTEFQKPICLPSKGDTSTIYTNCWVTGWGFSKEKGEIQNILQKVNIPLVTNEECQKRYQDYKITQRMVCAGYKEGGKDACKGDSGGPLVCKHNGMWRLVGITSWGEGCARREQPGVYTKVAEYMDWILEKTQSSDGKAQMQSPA
T3 sequence (P03952 20-638 limits assumed): as above
T14 sequence (A0A1D5Q7U7 entry or part of it): as the sequence (A0A2K5VTJ9 entry or part of it) above, with T24N counted along it
T15 sequence (A0A2K5VVW4 entry or part of it): as the sequence (F6PJ95 entry or part of it) above, with D101N, K113E, I126V, V191A counted along it
T17 sequence (A0A2K5VVW4 entry or part of it): as the sequence (F6PJ95 entry or part of it) above, with D101N, K113E, I126V, V191A counted along it

Binder | FXIIa Activation + HK Inhibition (IC50, nM) [1] [nM] | FXIIa Activation no HK Inhibition (IC50, nM) [1] [nM] | FXIa IC50 nM (native, full-length substrate; activation of FIX to FIXa) (human FXIa [2]) [nM] | FXIa IC50 nM (tri-peptide substrate) (human FXIa [2]) [nM] | FXI Autoactivation IC50 nM (on dextran sulfate) [3] [nM] | binding result [4] | binding result (Human plasma Kallikrein) | binding result [5] | binding result (Human Factor VII) | binding result [6] | binding result (Human Factor IX) | binding result [7] | binding result (Human Factor X) | binding result (Human Factor Xa Protease) | binding result (Human Factor XII) | binding result [8] | binding result [9] | binding result [10] | Kd [11] [nM] | Kd [12] [nM] | other results
αFXI-18623p IgG4 HC (S228P)(Q1)/LC Kappa (antibody, V domains shown, Fully human IgG4 (S228P)/kappa; also called αFXI-18623p-IgG4 (S228P) (Q1)/LC Kappa) VH: QVQLQESGPGLVKPSQTLSLTCTVSGGSIYSGAYYWSWIRQHPGKGLEWIGSIHYSGLTYYNPSLKSRVTISVDTSKNQFSLKLSSVTAADTAVYYCARDVDDSSGDEHYGMDVWGQGTTVTVSS VL: DIQMTQSPSSVSASVGDRVTITCRASQGIDSWLAWYQQKPGKAPKLLIYAASSLQSGVPSRFSGSGSGTDFTLTISSLQPEDFATYYCQQYHIVPITFGGGTKVEIKR | 6 | 14 | 0.4 | > 1000 | 5.5 | no binding (tested: 500 nM) | no binding (tested: 500 nM) | no binding (tested: 500 nM) | no binding (tested: 500 nM) | no binding (tested: 500 nM) | no binding (tested: 500 nM) | no binding (tested: 500 nM) | no binding (tested: 500 nM) | no binding (tested: 500 nM) | no binding (tested: 500 nM) | no binding (tested: 500 nM) | no binding (tested: 500 nM) | no binding (tested: 500 nM) | 0.0226 | 0.013 | Kd [13]: 0.0722 nM; Kd (human FXIa [14]): 0.0374 nM; Kd (cynomolgus monkey FXIa): 0.0195 nM; Kd (rhesus monkey FXIa): 0.149 nM
αFXI-18611 IgG4 HC (S228P)(E1)(L105)/LC Kappa (antibody, V domains shown, Fully human IgG4 (S228P)/kappa; also called αFXI-18611 mAb) VH: EVQLQESGPGLVKPSETLSLTCAVSGYSISSGYFWGWIRQPPGKGLEWIGSILHSGVTYYNPSLKSRVTISVDTSKNQFSLKLSSVTAADTAVYYCARDRTTVSLIEYFQHWGQGTLVTVSS VL: not shown | 7.6 | 34 | 1 | > 1000 | 3.3 | no binding (tested: 500 nM) | no binding (tested: 500 nM) | no binding (tested: 500 nM) | no binding (tested: 500 nM) | no binding (tested: 500 nM) | no binding (tested: 500 nM) | no binding (tested: 500 nM) | no binding (tested: 500 nM) | no binding (tested: 500 nM) | no binding (tested: 500 nM) | no binding (tested: 500 nM) | no binding (tested: 500 nM) | no binding (tested: 500 nM) | 0.1 | 0.18 | binding result [15]: no binding (tested: 500 nM); Kd [13]: 0.0529 nM; Kd (human FXIa [14]): 0.0554 nM; Kd (cynomolgus monkey FXIa): 0.0892 nM; Kd (rhesus monkey FXIa): 0.175 nM
